Experiments:
purified protein [1] = substrate: C[C@H](O)C(=O)O; assay: purified protein; format: biochemical, Lactiplantibacillus plantarum; settings: PBS pH 7.4, 35°C, 2.13 µM enzyme, racemization to D-lactate
purified protein [2] = substrate: C[C@@H](O)C(=O)O; assay: purified protein; format: biochemical, Lactiplantibacillus plantarum; settings: PBS pH 7.4, 35°C, 2.13 µM enzyme, racemization to L-lactate

B1: LarALp (Lactiplantibacillus plantarum WCFS1) (protein)
chain: VAIDLPYDKRTITAQIDDENYAGKLVSQAATYHNKLSEQETVEKSLDNPIGSDKLEELARGKHNIVIISSDHTRPVPSHIITPILLRRLRSVAPDARIRILVATGFHRPSTHEELVNKYGEDIVNNEEIVMHVSTDDSSMVKIGQLPSGGDCIINKVAAEADLLISEGFIESHFFAGFSGGRKSVLPGIASYKTIMANHSGEFINSPKARTGNLMHNSIHKDMVYAARTAKLAFIINVVLDEDKKIIGSFAGDMEAAHKVGCDFVKELSSVPAIDCDIAISTNGGYPLDQNIYQAVKGMTAAEATNKEGGTIIMVAGARDGHGGEGFYHNLADVDDPKEFLDQAINTPRLKTIPDQWTAQIFARILVHHHVIFVSDLVDPDLITNMHMELAKTLDEAMEKAYAREGQAAKVTVIPDGLGVIVK
notes: co-expressed with L. plantarum LarB, LarC, LarE in E. coli BL21(DE3) (Duet, pAT035/pAT038)
Km (purified protein [1]): 32 ± 10 mM | kcat (purified protein [1]): 179 ± 25 s⁻¹ | Km (purified protein [2]): 23 ± 12 mM | kcat (purified protein [2]): 185 ± 12 s⁻¹

Source: PMC11796402, “Overcoming barriers for investigating nickel-pincer nucleotide cofactor-related enzymes” (mBio, 2024)
